This series is described as follows: soluble on expression in E. coli; label from the status in PepcDB or PDB records.
Regarding “MSLSASPELADKKGIRACPFDEPKASDEINTGFMKIFTGGDTITARALYKEPIYFKPQFKPFLLCNELPTIKSDDDGTWRRLKVIPFLSKFIKHSEATKKMKKEGLPKNHFWADTSLSEKLPDWKQGFMCLLLKYFRKYRKHGLIHPKLVTQHTVEYRKKCDVFQDFIGDYLVRVDNTKKGISVMDLYQNMREWYKSNYTGKCPNAKDLRNYVQHRMPTYNKNAEGHHHHHH”, the “soluble on expression in E. coli” value is listed as “not soluble”. For the sequence “KLKDIAKKILVGGEKPSDFQKEKDQVYKYPILSNSRKADDFLGYSKTFRIAEKSITVSARGTIGAVFYRDFSYLPAVSLICFIPKPEFNINFLFHALKATKFHKQGSGTGQLTMAQFKEYQVYIPSLKKQQEIAATLDP”, the “soluble on expression in E. coli” value is reported as “soluble”.

On to “MENFAVIDLGSNSCRMTITQIQEDGSYAVTHRLKEMVRLSENENATDTPTLQAEAIDRTIAALKSFAAVYKDLPNLTIKAVATAATRKASNQKKFLKRVKNDVGLDIEVIPGTTEAYYDYLGVVNTLPTTNCVMVDTGGGSCELVLIVNGQAKDLISLPIGAVSLSEKFGLNDQVTASQLFKTMTFVDKIFNSVWWLRNGLNLPLVCLGGSNRTLAKINRRKCNILNFEDIHGYRLRDNAIYDTFNTVISQDAAGRAAIPGLAKDRADIIVGGMIPAISLMRFLDSDRMIFSQNGLREGILFEHLTALAEQSAKVSELEHHHHHH”, for which the “soluble on expression in E. coli” value is given as “not soluble”. The same measure for “GSSGARCYVDGSEEIGSDFKIKCEPKEGSLPLQYEWQKLSDSQKMPTSWLAEMTSSVISVKNASSEYSGTYSCTVRNRVGSDQCLLRLNVVPPSNK”: “soluble”. With “LVCRGSNEPTYCLCHQVSYGEMIGCDNPDCPIEWFHFACVDLTTKPKGKWFCPRCVQEK”, the “soluble on expression in E. coli” value is “soluble”. In the case of “MAVEVVMPKLGMAMKEGIITSWNIKAGDNVAKGELIASINSEKIETEIEAPADGTILDIAVSEDEGVPPGTVICYIGKPNEKVEVHESTKVEEELTASEVPQNVQHPEPLGKEVTNKQRIKISPVAKKIAKTENLDIRALLGTGPGGRITKVDVLKALEERVAIPEVLEESKVLPVTGMRKAIANRMHASLQNSAQLTLTMKVDVTDLVALHKEIAEVVQKRYDNKLTITDFVSRAVVLALGEHKEMNSAYIDDAIHQFEHVHLGMAVALEKGLVVPAIRFANNLSLVELSKEIKNAAQKARAGNLNSDDMQGTTFTISNLGSFGIEYFTPVLNTPETGILGVGAIEHVPVYKGKKLKKGSMLPLSLTFDHRVLDGAPAAAFLRTIKRYLEEPVTILL”, the “soluble on expression in E. coli” value was “not soluble”. On to “MSLTRSTRNSIEFKVWGRHALFTDPLTKVGGEKCSYHVPTYEALKGIAKSIYWKPTLIWVIDEVRVMKRVRTQTKGTKPLEFGGGNSLAIYTFLADVEYQVRAHFEWNEHRPELQADRIDGKHYAIARRMLERGGRQDIFLGTRDCQGYIEPCEFGGGAGAHDEGSELAFGLMFHGFDYPDETGDQKLHARFWRPVMRNGFIRFDRPEDCPVRKFVRSMSVKPFGFGQNLQSADEAAAELEGLAEGHHHHHH”, for which the “soluble on expression in E. coli” value was “soluble”. The value for “MTRRCELLVVGAGPAGMAAATQSAALGVDTLLLDEQATPGGQIYRAITTTALTRPDILGPDYWHGASLLEPLRASGAAYLSGATVWAVSRGAEAGDGGAFEVAYSVGGQADILRARHILLATGALERPFPIPGWTLPGVVTAGAAQILLKTAAIVPGEHAVLAGGGPLLYLLAWQYLNAGVRIERLLETTAPGGLARALPHALDFLRSPYLAKGLKLMRAVRAHVPITRGVRDLRAQGRERLESLSYRAGGRTHDMPARHLMLHQGVVPNLNLSRALGVDHQWNPTQACWQPRVDDWGATSVAGIGIAGDGADIGGAIAAEHRGRLAALQAAVALGRIDDARRDREARAPRRALARAMRGRAFFDVLYRPADAYRRPGDDTIVCRCEEITAGQIRATVRLGCSGPNQMKAFLRCGMGPCQGRLCGLTVSELIAHERGVPLPEVGYYRLRFPTKPVTLGELASLPQTEASRQAVVRLKKTALEHHHHHH” was “not soluble”. The value for “MAHHHHHHMWGFEAYAEGLSATLNIHGAPLTGVAPQAGESAPLAPPRCLWKKNRNNYLFDAQGKLLSAAEAHSPTIWRTHHAFSGRCALVNPTAPATGGAAAQSFGAPGWAEQAWTAYQSWSVGFRLSSTTTDEPHILLSVAPAYFPNLVSATGEIRKADAATLASLPCAPSAEEEVIYNKRMLETPLIWEEPYALSVECTTHGVFLWSDHWGIFGRKIADRCLEVRQGEVRQSGIATLPSPGPSPSSAAADEELALVAYDAALRLRWSAAGPGSRSSTDGGSARAVAPTLSVELKTGGDAAAGGAAPTCEEKVGEELWQHLVDLPLSLDEVACKAAFRPYVTLMEGGDAVELL” was “not soluble”; that for “GSPNSPATGEKKECWSWESYLEEQKAITAPVSLFQDSQAVTHNKNGFKLGMKLEGIDPQHPSMYFILTVAEVCGYRLRLHFDGYSECHDFWVNANSPDIHPAGWFEKTGHKLQPPKGYKEEEFSWSQYLRSTRAQAAPKHLFVSQSHSPPPLGFQVGMKLEAVDRMNPSLVCVASVTDVVDSRFLVHFDNWDDTYDYWCDPSSPYIHPVGWCQKQGKPLTPPQDYPDPDNFCWEKYLEETGASAVPTWAFKVRPPHSFLVNMKLEAVDRRNPALIRVASVEDVEDHRIKIHFDGWSHGYDFWIDADHPDIHPAGWCSKTGHPLQPPLGPREPSSAVDSSGRIVTD” was “soluble”.

“MSLSSDSQEIRRSILSKWHKTLSKYGNLFSSDTISGTSPPSVFVGSYNYPKVFVGPMVPPIHGDTSLLDSPEKWKGRSLEEIINFRLNLVRGIHKTGIEHTEGRYIENLQEITMSEKPTDLDLVFMKNTSSNISMDGESAPFGPTGEIKSAKFSGSSSTKPIEKIFYDKDMKAQDAVLKLYNSGIEISKIQKCFSIGMLGKKRKLVPTKWSITATDDIISKSIVKEILENSIIDTCKVFSYEHLGNVFSVILFPHRWIFEMIEGWYSNGILGFGSDSEDARGIDHPPRIAGAYFAAKLGVSEYLLKNKIQAGVLIFREIRPEYAIPVGVWQVREGIREAMKQKPQIVSDFNHALNLASAKTSVSKKEWIVNGDMINRVRQKTILDFMEGHHHHHH”: the “soluble on expression in E. coli” value is given as “not soluble”. Consider “MDLFLALRELGRPDQMNLSYLYLKKILEEELRDHDCQCQLNPDFTVTISCRVDGPHGALYIVPNSDFLKSSSFSDLSAFILNLREEIRRFGEFEAELQTGTG”, for which the “soluble on expression in E. coli” value is on record as “not soluble”. Take “MGHHHHHHSHMHTPEVASPSPGDRCREKSSPRPQTRFPSWHRVGDGWRVSIGTARSGCCQVGPCQGSSPLSTLCLAVPAPRYSNMACTQQSGGTTMVTADAPRLCLVNVAEQNGRLDPEEGPLSWHLSLAT”: the “soluble on expression in E. coli” value was “not soluble”.

For the sequence “MGSDKIHHHHHHMFKRKVISFDIGSKNIKLVEGKCDGDKVIVTNMDMIETPKNSMNDGSIVDINLIAEAVRKLIDKVSTRTKNVVFTSQSTSIITRTVEIPWAKEKDMKSMIKYDIEQYLPIDLNEYIIKHKVIDEFQKEEVKMVRANVVVYPKKMAKAYWSLVEELELKPMALEVSLSAMEKILSSKDIITINEKDYQKEDTIAIVDIGSDEIEMNIIANGNLEFTRVLMGGGAYIDSSISNELSVDMDVAEEKKIIFGDLTLDNFSGEKQIVNEAMKNVIDRWNSEILRMLDYFKNKNKDKQIKKVYVHGGTSQIPGLCQYMKNSLGISVELIKNISTVSLDKKLEDKDITNYINAIGSIIM”, the “soluble on expression in E. coli” value is “not soluble”. As to “MGSDKIHHHHHHMGFYEEMIRRIAADADPAACVEEIRIYANWVLVKTGKWSISTYFHGMPGFTDPAGMGTWMGDWIGRPARAAALELLVSREILKRSVGMACLKSLLPDPPATIAGGAIELVEPAACRIPTCFIGYFKTAAAWREKGYPVTIVELFPRPGDIHWNEADEVLEKAELVLMTGLTVVNETLEAVIRRTPSARMRIIMGPTVPASPVLFDYGIDMLGITQIDDVELMSNYALLGGGSIANAPAGALRSLNMARDLRALQERISALAR”, the “soluble on expression in E. coli” value is listed as “not soluble”. Take “MEQHVIEFLTTTLDDLKAQDILAIDVRGKSSITDTMIIATGTSVRHVASTAERLITEAKKAGVQVLGEEGRAVADWVVVDFGQAIVHLLQADARELYQLEKLWRLEHHHHHH”: the “soluble on expression in E. coli” value is given as “not soluble”.

In the case of “MEKYIHSVEDYHRLISYLENNLNYEDSVVNHVIYVIAKTGMRYGEIIGLTNNDTSLDEHYLHTYKRYNTSTWKWTNAKNESSKRYIPIDDKIVAALSNMIKERERINSLLRIKNKEEFLFFHYGLEHGIPSVATVNKALKKILKKLDIEPIITTKGLRHTYGSYLLHNNIDMGVVARILGHKDIQMLIQVYGHTLTEKIDKEFKEVEQIMNRILEHHHHHH”, the “soluble on expression in E. coli” value is “not soluble”.

Regarding “MLSRICGNGIRLTRTRLQFQPSIVTFRDYSNPAPKRGFLNNLIDNVRDEMQKNKELQEHQQQLKARMQELNESDALKDARKKFEIVEKETLKSSEVVKQKIEELSDHMKKMVHEIQKTEAGKKMTEAGAEALKQARKAAEHVEKVAEKVGDTEVYKHVSTSMKTVKDEIDNIADVRMYSRPEALTKRTDGFDLEKERVVEANDSATDVTLHKDSKWYSGWKNFSESNTYYHKLLDWKIKYDESDNMAVRMMRGVTEKIGSVFSGQNEVSEVLTEIHKIDANFDKQEWLRFCETKIIPNILEAFIRFDLEVLQSWCHERAYTQLSTVVKEYQKMHFSTKDSRIIDINKVEMATGKMMEQGPVLIISFQVYMINVTKNADGKVVEGDPDNPKRINHIWVLCRDVEEYNPALAWKLLEVHMQETPLAL”, the “soluble on expression in E. coli” value is “not soluble”. “MSLNITPHDQTGSQLQDSTLSQRAIQTVRYINNINDWRYNNPSQKDGVIPDSAFGWSSLPELHNVLQADRVYVYQPDQPGLMSALLAQSRHSALVGKVVARRLLDSFGNDMQVNVPDSIADGSLVYLNEGHHHHHH”: the “soluble on expression in E. coli” value is on record as “soluble”. The value for “MVARDTTAPQVKIVNPVTGNVSGSNVPISVNASDDSGASGITYALYIDGVLKATGKGSTLGYNWNIRNVAAGAHTVQVVAKDAAGNSASSSVSVTVVKLEHHHHHH” was “not soluble”; that for “MTIYHFVGIKGSGMSALAQILHDKGFQVQGSDVDKYFFTQKALEEKQIPIMTFSADNIKEGLTIIAGNAFPDTHEEIERANELNLPVIRYHKFLGQLIDGYTSIAITGSHGKTSTTGLLSHVVGAIRPTSYLIGDGTGSGTKDAKYFALEACEYQRHFLAYKPTYAIMTNIDWDHPDYFKSVDDVFNAFETLGKQVKKAVFALGDDVELRKLSLDVPIIYFGFGSENEFQAKNVKKETTGTKFDVYHRDEFLASFEIPAYGDHNVLNALSVIALCDYEGLPVDEVKKELKTFEGVKRRFSITEKGNQVLVDDYAHHPSEIRATVNAARQKYPNKKIVAVFQPHTFTRTRTFLQGFADSLNLADEVYLCDIFGSAREKTGNLTIADLAHKTKGNHIIKEEHTEELLQYPEAVILFMGAGDVQKFQAAYEKVLDNEIVANEVLKKSAIN” was “not soluble”. On to “MGLQFAYLPVEIGQVSDEKCSAFHQLMATLPGPVLAFCNSGNRARALYSRDVGTTTTPAETISAACDWEHEAAAVTEAESEAAGAAAVSAASSRDEAAGKSIPVTPACNWDNAFDIVVVGGGSAGLGVTASLLRRRSSLRIAIIEPNDKHYYQPAWTLVGGGAYAVDQTVRNTADVIPHGAEWIKAEVSGFSPNDNLVHLADGRTIGYQQLIVCPGIRLAWEKIEGIQETLGKNGVTSNYLFDLAPYTWSLTQQLKGGKALFTQPPMPIKCAGAPQKAMYLSCDYWQRQGVLDKIEVEFDSAGAVLFGVADFVPPLMEYVRKYHANLVFNSNLVKVNGPEKIATFEIKNEAGEVTRVDKPFDMLHVTPPQAAPDFLRDSPLADASGYCEVNPKTLQHTRFANIFSLGDACSSPNTKTAAAVRKQIVIVAENLLAAKDGREFHAVYDGYGACPLTVENGKVVLAEFGFGGKLLPTFPLNPAVARKLYWWFKVKLFPWLYWEGLEHHHHHH”, for which the “soluble on expression in E. coli” value is listed as “not soluble”.

For the origin of these results see the DeepSol protein solubility set.
